Protein	TVMV protease activity (degradation of fluorogenic TVMV substrate peptide) (Calmodulin)	HCV protease activity (quenched fluorescent HCV substrate) (SH3^pep-EGFP-PDZ^pep)
TVMV-AI-CalmodulinBinder (protein) SKALLKGVRDFNPISACVCLLENSSDGHSERLFGIGFGPYIIANQHLFRRNNGELTIKTMHGEFKVKNSTQLQMKPVEGRDIIVIKMAKDFPPFPQKLKFRQPTIKDRVCMVSTNFQQKSVSSLVSESSHIVHKEDTSFWQHWITTKDGQCGSPLVSIIDGNILGIHSLTHTTNGSNYFVEFPEKFVATYLDAADGWCKNWKFNADKISWGSFILWEDAPEDFMSGLVPRGVGREYVRFAPRWKKNFIAVSAANRFKKISSSGAL	releasing inhibition of the TVMV protease by the autoinhibitor peptide	–
HCV-SH3^dom with C-terminal TVMV-inducible AI-domain (protein) SMSTSGSGGAEYVRALFDFNGNDEEDLPFKKGDILRIRDKPEEQWWNAEDSEGKRGMIPVPYVEKYRPASASVSALIGGRGGSGGSGGSGGSGGSGGSAKGSVVIVGRINLSGDTAYSQQTRGAAGIAATSATGRDKNQVDGEVQVLSTATQSFLATCVNGVCWTVYHGAGSKTLAGPKGPITQMYTNVDQDLVGWPAPPGARSMTPCTCGSSDLYLVTRHADVIPVRRRGDSRGSLLSPRPVSYLKGSSGGPLLCPSGHVVGIFRAAVCTRGVAKAVDFIPVESMETTMRGGGGSGGETVRFQSGGSGGDELILCPLDLGGSGGTGHHHHHH	–	resulting in reciprocal cleavage of the TVMV and HCV protease cleavage sites, thereby more fully activating both proteases
TVMV-PDZ^dom with C-terminal HCV-inducible AI-domain (protein) SGGSGGSMEIRVRVEKDPELGFSISGGVGGRGNPFRPDDDGIFVTRVQPEGPASKLLQPGDKIIQANGYSFINIEHGQAVSLLKTFQNTVELIIVREVSSGGRGGSGGSGGSGGSGGSGGSSKALLKGVRDFNPISACVCLLENSSDGHSERLFGIGFGPYIIANQHLFRRNNGELTIKTMHGEFKVKNSTQLQMKPVEGRDIIVIKMAKDFPPFPQKLKFRQPTIKDRVCMVSTNFQQKSVSSLVSESSHIVHKEDTSFWQHWITTKDGQCGSPLVSIIDGNILGIHSLTHTTNGSNYFVEFPEKFVATYLDAADGWCKNWKFNADKISWGSFILWEDAPESGGDEMEECASHLGSGREYVRFAPGSTHHHHHH	–	resulting in reciprocal cleavage of the TVMV and HCV protease cleavage sites, thereby more fully activating both proteases

Source: patent US20160223529
